In IntAct's records for PubMed 22244764:

B1: PHD finger protein 12 (Homo sapiens), Q96QT6 (parent)
chain: MWEKMETKTIVYDLDTSGGLMEQIQALLAPPKTDEAEKRSRKPEKEPRRSGRATNHDSCDSCKEGGDLLCCDHCPAAFHLQCCNPPLSEEMLPPGEWMCHRCTVRRKKREQKKELGHVNGLVDKSGKRTTSPSSDTDLLDRSASKTELKAIAHARILERRASRPGTPTSSASTETPTSEQNDVDEDIIDVDEEPVAAEPDYVQPQLRRPFELLIAAAMERNPTQFQLPNELTCTTALPGSSKRRRKEETTGKNVKKTQHELDHNGLVPLPVKVCFTCNRSCRVAPLIQCDYCPLLFHMDCLEPPLTAMPLGRWMCPNHIEHVVLNQKNMTLSNRCQVFDRFQDTVSQHVVKVDFLNRIHKKHPPNRRVLQSVKRRSLKVPDAIKSQYQFPPPLIAPAAIRDGELICNGIPEESQMHLLNSEHLATQAEQQEWLCSVVALQCSILKHLSAKQMPSHWDSEQTEKADIKPVIVTDSSVTTSLQTADKTPTPSHYPLSCPSGISTQNSLSCSPPHQSPALEDIGCSSCAEKSKKTPCGTANGPVNTEVKANGPHLYSSPTDSTDPRRLPGANTPLPGLSHRQGWPRPLTPPAAGGLQNHTVGIIVKTENATGPSSCPQRSLVPVPSLPPSIPSSCASIENTSTLQRKTVQSQIGPPLTDSRPLGSPPNATRVLTPPQAAGDGILATTANQRFSSPAPSSDGKVSPGTLSIGSALTVPSFPANSTAMVDLTNSLRAFMDVNGEIEINMLDEKLIKFLALQRIHQLFPSRVQPSPGSVGTHQLASGGHHIEVQRKEVQARAVFYPLLGLGGAVNMCYRTLYIGTGADMDVCLTNYGHCNYVSGKHACIFYDENTKHYELLNYSEHGTTVDNVLYSCDFSEKTPPTPPSSIVAKVQSVIRRRRHQKQDEEPSEEAAMMSSQAQGPQRRPCNCKASSSSLIGGSGAGWEGTALLHHGSYIKLGCLQFVFSITEFATKQPKGDASLLQDGVLAEKLSLKPHQGPVLRSNSVP
B2: PHD finger protein 12 (Mus musculus), Q5SPL2 (parent)
chain: MWEKMETKTIVYDLDTSGGLMEQIQALLAPPKTDEAEKRSRKPEKESRRSGRATNHDSCDSCKEGGDLLCCDHCPAAFHLQCCNPPLSEEMLPPGEWMCHRCTVRRKKREQKKELGHVNGLVDKSSKRTTSPSSDTDLLDRPASKTELKAIAHARILERRASRPGTPTSNASTETPTSEHNDVDEDIVDVDEEPVAAEPDYVQPQLRRPFELLIAAAMERNPTQFQLPNELTCTTALPGSSKRRRKEETTGKNVKRTQHELDHNGLVPLPVKVCFTCNRSCRVAPLIQCDYCPLLFHMDCLEPPLTAMPLGRWMCPNHIEHVVLNQKNLTLSNRCQVFDRFQDTISQHVVKVDFLNRIHKKHPPNRRVLQSVKRRSLKVPDAIKSQYQFPPPLIAPAAIRDGELICSGVPEESQTHLLNSEHLATQAEQQEWLCSVVALQCSILKHLSAKQMPSPWDSEQTEKADIKPVIVTDSSITTSLQTADKAPLPSHYPLSCPSAVSTQNSLGCSPPHQPPTLEDISCSSCVEKSKKAPCGTANGPVNTEIKANGPHLYSSPTDSTDPRRLPGANTPLPGLTHRQGWPRPLTPPSAGGLQNHVGIIVKTENATGPSSCPQRSLVPVPSLPPSIPSSCASIENTSTLHRKTVQSQIGPSSTESRPLGSPPNATRVLTPPQAAGDSILATGANQRFCSPAPSSDGKVSPGTLSIGSALTVPSFPANSTAMVDLTNSLRAFMDVNGEIEINMLDEKLIKFLALQRVHQLFPSRVQASPGNVGTHPLASGGHHPEVQRKEVQARAVFCPLLGLGGAVNMCYRTLYIGTGADMDVCLTNYGHCNYVSGKHACIFYDENTKHYELLNYSEHGTTVDNVLYSCDFSEKTPPTPPSSIVAKVQSVIRRRRHQKQDEEPSEEAAMMSSQAQGPQRRPCNCKASSSSLIGGSGAGWEGTALLHHGSYIKLGCLQFVFSITEFATKQPKGDASLLQDGVLAEKLSLKPHQGPVLRSNSVP
B3: Mortality factor 4-like protein 1 (Homo sapiens), Q9UBU8-2 (parent)
chain: MAPKQDPKPKFQEGERVLCFHGPLLYEAKCVKVAIKDKQVKYFIHYSGWNKNWDEWVPESRVLKYVDTNLQKQRELQKANQEQYAEGKMRGAAPGKKTSGLQQKNVEVKTKKNKQKTPGNGDGGSTSETPQPPRKKRARVDPTVENEETFMNRVEVKVKIPEELKPWLVDDWDLITRQKQLFYLPAKKNVDSILEDYANYKKSRGNTDNKEYAVNEVVAGIKEYFNVMLGTQLLYKFERPQYAEILADHPDAPMSQVYGAPHLLRLFVRIGAMLAYTPLDEKSLALLLNYLHDFLKYLAKNSATLFSASDYEVAPPEYHRKAV

Variants of: B1
Settings: with MORF4L1, Q9UBU8-2

Variant	effect of a mutation on the interaction
F210A	decreasing interaction
P228A	decreasing interaction
L213A	decreasing interaction
L227A	decreasing interaction
N221E	decreasing interaction
F225A	decreasing interaction

Variants of: B2
Settings: with MORF4L1, Q9UBU8-2

Variant	effect of a mutation on the interaction
P228A	decreasing interaction
F225A	disrupting interaction strength
L213A	disrupting interaction
L227A	disrupting interaction
F210A	disrupting interaction

Variants of: B3
Settings: with phf12_human PHF12, Q96QT6

Variant	effect of a mutation on the interaction
Y235A	disrupting interaction
V268A	decreasing interaction
L287A	decreasing interaction
M228A	decreasing interaction
W172A	decreasing interaction
V227A	decreasing interaction

Variants of: B3
Settings: with phf12_mouse Phf12, Q5SPL2

Variant	effect of a mutation on the interaction
L287A	decreasing interaction
L168A	decreasing interaction
V227A	decreasing interaction
